Assay results reported in the supplement of paper PMC10065799, “High-throughput profiling of sequence recognition by tyrosine kinases and SH2 domains using bacterial peptide display” (eLife, 2023).

What was measured:
[1] = biological target: Grb2 SH2 (UniProt P62993); experiment: SH2 binding enrichment of the phosphorylated peptide, bacterial display (enrichment ratio); higher = better substrate or ligand; peptides without Tyr show the background
[2] = biological target: c-Src SH2; experiment: as above
[3] = biological target: SHP2-C SH2; experiment: as above
[4] = biological target: EPHB2 (UniProt P29323); experiment: phosphorylation enrichment, bacterial display (enrichment ratio); higher = better substrate or ligand; peptides without Tyr show the background
[5] = biological target: EPHB1 (UniProt P54762); experiment: as above
[6] = biological target: FGFR3 (UniProt P22607); experiment: as above
[7] = biological target: MERTK (UniProt Q12866); experiment: as above
[8] = system: c-Src; experiment: as above
[9] = system: c-Abl (mouse); experiment: as above
[10] = biological target: Hck (UniProt P08631); experiment: as above
[11] = biological target: Jak2 (UniProt O60674); experiment: as above
[12] = biological target: Fes (UniProt P07332); experiment: as above
[13] = biological target: Fyn (UniProt P06241); experiment: as above
[14] = system: Fer (mouse); experiment: as above
[15] = system: AncSZ; experiment: as above
[16] = biological target: FGFR1 (UniProt P11362); experiment: as above
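For SH2 binding enrichment of the phosphorylated peptide, bacterial display in this document: peptide library displayed on the E. coli surface as eCPX fusions, selected cells deep-sequenced, score is each peptide's frequency after selection divided by its frequency in the input.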
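For phosphorylation enrichment, bacterial display in this document: 11-residue human phosphosite peptides and single-mutation variants displayed on the E. coli surface, counted by deep sequencing, each peptide's frequency after selection divided by its frequency in the unselected input library; frequency after pTyr selection over input frequency; kinase dosed for 20-30% of maximal phosphorylation in three min.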

Sequence of EPHB1 (P54762 whole entry, looked up): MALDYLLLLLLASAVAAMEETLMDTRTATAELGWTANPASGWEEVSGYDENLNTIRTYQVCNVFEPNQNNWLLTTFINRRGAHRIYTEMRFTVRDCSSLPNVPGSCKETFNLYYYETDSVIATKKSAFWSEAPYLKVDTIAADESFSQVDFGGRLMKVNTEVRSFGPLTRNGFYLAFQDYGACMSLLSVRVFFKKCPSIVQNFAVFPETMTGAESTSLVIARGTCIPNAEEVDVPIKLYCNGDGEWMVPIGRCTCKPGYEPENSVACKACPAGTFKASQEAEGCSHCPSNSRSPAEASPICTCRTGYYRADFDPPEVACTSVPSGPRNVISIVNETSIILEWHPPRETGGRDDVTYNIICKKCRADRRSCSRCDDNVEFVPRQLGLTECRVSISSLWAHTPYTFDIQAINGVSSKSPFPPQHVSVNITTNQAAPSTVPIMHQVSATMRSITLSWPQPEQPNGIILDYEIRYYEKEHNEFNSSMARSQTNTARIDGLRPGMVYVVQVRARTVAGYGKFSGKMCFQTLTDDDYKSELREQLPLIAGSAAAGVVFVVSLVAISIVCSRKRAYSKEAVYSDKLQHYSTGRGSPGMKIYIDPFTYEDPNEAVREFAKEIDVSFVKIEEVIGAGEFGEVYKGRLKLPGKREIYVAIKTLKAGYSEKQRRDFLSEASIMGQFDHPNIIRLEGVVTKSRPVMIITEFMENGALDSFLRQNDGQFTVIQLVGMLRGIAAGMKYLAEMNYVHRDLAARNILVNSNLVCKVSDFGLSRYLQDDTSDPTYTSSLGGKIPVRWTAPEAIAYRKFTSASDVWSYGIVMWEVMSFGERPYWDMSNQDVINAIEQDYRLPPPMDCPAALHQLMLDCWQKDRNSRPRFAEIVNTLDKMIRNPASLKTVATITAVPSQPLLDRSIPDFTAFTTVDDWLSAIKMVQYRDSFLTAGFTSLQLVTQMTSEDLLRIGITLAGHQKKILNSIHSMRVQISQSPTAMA
Sequence of Grb2 SH2 (P62993 whole entry, looked up): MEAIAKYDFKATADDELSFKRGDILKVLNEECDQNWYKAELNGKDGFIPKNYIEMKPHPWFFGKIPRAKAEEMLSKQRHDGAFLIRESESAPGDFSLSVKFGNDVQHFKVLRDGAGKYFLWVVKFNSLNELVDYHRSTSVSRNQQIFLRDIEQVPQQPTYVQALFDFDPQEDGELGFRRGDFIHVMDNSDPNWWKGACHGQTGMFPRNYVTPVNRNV
Sequence of MERTK (Q12866 whole entry, looked up): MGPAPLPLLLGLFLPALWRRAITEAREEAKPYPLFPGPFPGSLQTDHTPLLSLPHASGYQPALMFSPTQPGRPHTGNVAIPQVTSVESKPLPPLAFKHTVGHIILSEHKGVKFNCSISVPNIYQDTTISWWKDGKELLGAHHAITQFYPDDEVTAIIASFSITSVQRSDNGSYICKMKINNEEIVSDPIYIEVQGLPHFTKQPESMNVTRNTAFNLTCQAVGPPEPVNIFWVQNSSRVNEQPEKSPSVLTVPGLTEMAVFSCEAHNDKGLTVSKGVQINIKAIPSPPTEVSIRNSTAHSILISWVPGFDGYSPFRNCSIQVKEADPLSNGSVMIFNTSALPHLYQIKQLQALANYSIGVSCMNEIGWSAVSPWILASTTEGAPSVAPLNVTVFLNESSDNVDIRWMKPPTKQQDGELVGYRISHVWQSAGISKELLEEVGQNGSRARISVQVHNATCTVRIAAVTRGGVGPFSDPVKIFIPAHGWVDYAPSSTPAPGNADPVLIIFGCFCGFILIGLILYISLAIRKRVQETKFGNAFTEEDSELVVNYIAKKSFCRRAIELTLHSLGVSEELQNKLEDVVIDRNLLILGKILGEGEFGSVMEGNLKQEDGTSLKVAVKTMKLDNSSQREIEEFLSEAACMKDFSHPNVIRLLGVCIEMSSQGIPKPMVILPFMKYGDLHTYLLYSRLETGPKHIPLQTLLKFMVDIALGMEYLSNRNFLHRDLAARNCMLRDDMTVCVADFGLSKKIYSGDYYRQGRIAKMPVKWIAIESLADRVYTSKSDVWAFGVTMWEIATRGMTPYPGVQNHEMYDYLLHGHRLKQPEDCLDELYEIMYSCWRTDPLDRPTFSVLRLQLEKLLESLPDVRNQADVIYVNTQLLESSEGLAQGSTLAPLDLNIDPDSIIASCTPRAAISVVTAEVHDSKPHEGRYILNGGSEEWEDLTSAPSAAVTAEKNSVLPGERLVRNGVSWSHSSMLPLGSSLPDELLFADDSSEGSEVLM
Sequence of Hck (P08631 whole entry, looked up): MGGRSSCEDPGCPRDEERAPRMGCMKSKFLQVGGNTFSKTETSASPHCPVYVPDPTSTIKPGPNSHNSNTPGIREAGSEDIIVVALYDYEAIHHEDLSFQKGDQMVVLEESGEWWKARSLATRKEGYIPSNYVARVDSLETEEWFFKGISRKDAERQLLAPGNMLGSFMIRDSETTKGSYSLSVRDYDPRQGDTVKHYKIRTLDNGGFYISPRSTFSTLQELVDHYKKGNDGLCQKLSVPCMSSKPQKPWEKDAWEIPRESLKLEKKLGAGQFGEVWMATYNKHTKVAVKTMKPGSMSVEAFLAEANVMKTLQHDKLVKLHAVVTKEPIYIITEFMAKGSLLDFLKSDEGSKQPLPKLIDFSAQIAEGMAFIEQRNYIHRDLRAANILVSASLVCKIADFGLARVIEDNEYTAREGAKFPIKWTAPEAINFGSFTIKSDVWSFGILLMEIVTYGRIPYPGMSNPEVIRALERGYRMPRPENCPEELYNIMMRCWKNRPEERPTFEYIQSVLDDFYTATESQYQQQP
Sequence of Fyn (P06241 whole entry, looked up): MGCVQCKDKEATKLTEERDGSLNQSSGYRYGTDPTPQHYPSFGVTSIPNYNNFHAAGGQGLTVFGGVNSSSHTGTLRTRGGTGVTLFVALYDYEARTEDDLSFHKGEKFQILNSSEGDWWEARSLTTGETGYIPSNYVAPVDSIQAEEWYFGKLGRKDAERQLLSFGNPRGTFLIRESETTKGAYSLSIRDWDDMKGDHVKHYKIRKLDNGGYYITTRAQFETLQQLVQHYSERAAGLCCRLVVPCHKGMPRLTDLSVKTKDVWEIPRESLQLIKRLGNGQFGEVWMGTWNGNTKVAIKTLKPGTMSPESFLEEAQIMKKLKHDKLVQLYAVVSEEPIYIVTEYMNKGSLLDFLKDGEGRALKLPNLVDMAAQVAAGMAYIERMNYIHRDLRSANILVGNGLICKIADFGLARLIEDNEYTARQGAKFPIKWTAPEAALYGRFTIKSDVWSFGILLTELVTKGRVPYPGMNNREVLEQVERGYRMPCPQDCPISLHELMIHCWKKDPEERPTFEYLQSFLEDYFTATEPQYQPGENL
Sequence of EPHB2 (P29323 whole entry, looked up): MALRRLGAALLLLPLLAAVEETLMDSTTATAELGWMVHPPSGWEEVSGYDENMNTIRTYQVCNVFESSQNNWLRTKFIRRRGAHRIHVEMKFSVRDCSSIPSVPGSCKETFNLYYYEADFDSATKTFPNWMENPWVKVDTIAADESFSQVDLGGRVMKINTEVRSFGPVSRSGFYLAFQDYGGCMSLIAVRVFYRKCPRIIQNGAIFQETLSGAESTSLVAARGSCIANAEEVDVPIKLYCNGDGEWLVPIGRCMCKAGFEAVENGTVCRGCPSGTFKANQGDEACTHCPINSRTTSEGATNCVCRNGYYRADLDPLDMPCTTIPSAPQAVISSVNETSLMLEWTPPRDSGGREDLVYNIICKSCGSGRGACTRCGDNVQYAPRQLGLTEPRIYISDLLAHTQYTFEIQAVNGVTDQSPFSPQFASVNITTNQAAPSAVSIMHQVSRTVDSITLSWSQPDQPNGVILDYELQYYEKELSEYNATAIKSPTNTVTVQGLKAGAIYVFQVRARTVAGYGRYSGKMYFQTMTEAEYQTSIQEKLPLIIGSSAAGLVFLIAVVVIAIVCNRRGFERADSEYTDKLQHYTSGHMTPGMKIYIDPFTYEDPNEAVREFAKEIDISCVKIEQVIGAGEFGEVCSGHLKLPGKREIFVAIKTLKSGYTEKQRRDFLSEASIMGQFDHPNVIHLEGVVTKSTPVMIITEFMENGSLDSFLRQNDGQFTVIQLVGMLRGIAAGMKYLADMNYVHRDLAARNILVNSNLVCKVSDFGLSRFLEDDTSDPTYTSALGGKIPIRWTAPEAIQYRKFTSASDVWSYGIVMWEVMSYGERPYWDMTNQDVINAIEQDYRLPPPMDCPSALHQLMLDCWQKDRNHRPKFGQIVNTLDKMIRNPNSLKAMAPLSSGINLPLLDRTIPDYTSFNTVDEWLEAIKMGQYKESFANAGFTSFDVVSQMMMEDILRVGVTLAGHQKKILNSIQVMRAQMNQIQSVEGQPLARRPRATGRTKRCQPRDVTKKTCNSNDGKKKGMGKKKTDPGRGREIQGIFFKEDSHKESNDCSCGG

For EQYELHCEMGS [CBL_Y371_Y371H], the SH2 binding enrichment [1] was 0.815, the SH2 binding enrichment [2] was 0.611 and the SH2 binding enrichment [3] was 0.859. The phosphorylation enrichment [4] was 0.63, the phosphorylation enrichment [5] was 0.682 and the phosphorylation enrichment [6] was 0.818. For the same sequence, the phosphorylation enrichment [7] was 0.476, the phosphorylation enrichment [8] was 0.61 and the phosphorylation enrichment [9] was 0.82. The phosphorylation enrichment [10] was 0.498, the phosphorylation enrichment [11] was 1.03 and the phosphorylation enrichment [12] was 1.18. It also gave a phosphorylation enrichment [13] of 0.491, a phosphorylation enrichment [14] of 0.915 and a phosphorylation enrichment [15] of 1.33. It also gave a phosphorylation enrichment [16] of 0.538.

Sequence ERFSYYGMKAV [SLC15A2_Y61] has an SH2 binding enrichment [1] of 0.877, an SH2 binding enrichment [2] of 0.978 and an SH2 binding enrichment [3] of 0.85. For the same sequence, the phosphorylation enrichment [4] was 0.658, the phosphorylation enrichment [5] was 0.477 and the phosphorylation enrichment [6] was 4.31. The phosphorylation enrichment [7] was 0.9, the phosphorylation enrichment [8] was 1.4 and the phosphorylation enrichment [9] was 0.578. For the same sequence, the phosphorylation enrichment [10] was 1.37, the phosphorylation enrichment [11] was 4.66 and the phosphorylation enrichment [12] was 0.767. It also gave a phosphorylation enrichment [13] of 0.8, a phosphorylation enrichment [14] of 0.386 and a phosphorylation enrichment [15] of 0.993. It also gave a phosphorylation enrichment [16] of 4.94.

ERLLDYTRTVQ [INPP5E_Y439] was tested, and the SH2 binding enrichment [1] was 0.777, the SH2 binding enrichment [2] was 0.39 and the SH2 binding enrichment [3] was 0.584. It also gave a phosphorylation enrichment [4] of 0.451, a phosphorylation enrichment [5] of 0.663 and a phosphorylation enrichment [6] of 0.665. The phosphorylation enrichment [7] was 0.365, the phosphorylation enrichment [8] was 0.493 and the phosphorylation enrichment [9] was 0.853. It also gave a phosphorylation enrichment [10] of 0.439, a phosphorylation enrichment [11] of 1.06 and a phosphorylation enrichment [12] of 1.06. For the same sequence, the phosphorylation enrichment [13] was 0.495, the phosphorylation enrichment [14] was 0.544 and the phosphorylation enrichment [15] was 0.945. The phosphorylation enrichment [16] was 0.518.

With ERSMSYSDESR [SMG1_Y143] the SH2 binding enrichment [1] was 0.881, the SH2 binding enrichment [2] was 0.715 and the SH2 binding enrichment [3] was 0.714. For the same sequence, the phosphorylation enrichment [4] was 0.541, the phosphorylation enrichment [5] was 0.541 and the phosphorylation enrichment [6] was 0.63. For the same sequence, the phosphorylation enrichment [7] was 0.489, the phosphorylation enrichment [8] was 0.538 and the phosphorylation enrichment [9] was 0.905. For the same sequence, the phosphorylation enrichment [10] was 0.456, the phosphorylation enrichment [11] was 0.876 and the phosphorylation enrichment [12] was 0.912. It also gave a phosphorylation enrichment [13] of 0.463, a phosphorylation enrichment [14] of 0.485 and a phosphorylation enrichment [15] of 0.887. For the same sequence, the phosphorylation enrichment [16] was 0.537.

For ERTIEYLEEVA [HADHA_Y239], the SH2 binding enrichment [1] was 0.774, the SH2 binding enrichment [2] was 0.513 and the SH2 binding enrichment [3] was 0.637. The phosphorylation enrichment [4] was 0.704, the phosphorylation enrichment [5] was 0.593 and the phosphorylation enrichment [6] was 0.845. For the same sequence, the phosphorylation enrichment [7] was 0.541, the phosphorylation enrichment [8] was 0.521 and the phosphorylation enrichment [9] was 0.863. For the same sequence, the phosphorylation enrichment [10] was 0.622, the phosphorylation enrichment [11] was 1.2 and the phosphorylation enrichment [12] was 1.35. The phosphorylation enrichment [13] was 0.722, the phosphorylation enrichment [14] was 0.663 and the phosphorylation enrichment [15] was 1.28. It also gave a phosphorylation enrichment [16] of 0.608.

In the case of ESFRLYPPVPQ [CYP4B1_Y377], the SH2 binding enrichment [1] is reported as 0.829, the SH2 binding enrichment [2] is reported as 0.464 and the SH2 binding enrichment [3] is reported as 0.713. For the same sequence, the phosphorylation enrichment [4] was 0.477, the phosphorylation enrichment [5] was 0.416 and the phosphorylation enrichment [6] was 0.491. It also gave a phosphorylation enrichment [7] of 0.404, a phosphorylation enrichment [8] of 0.391 and a phosphorylation enrichment [9] of 0.553. The phosphorylation enrichment [10] was 0.415, the phosphorylation enrichment [11] was 0.536 and the phosphorylation enrichment [12] was 0.704. The phosphorylation enrichment [13] was 0.457, the phosphorylation enrichment [14] was 0.378 and the phosphorylation enrichment [15] was 0.62. It also gave a phosphorylation enrichment [16] of 0.342.

In the case of ESKAGYRVPRS [CLDN7_Y195], the SH2 binding enrichment [1] is reported as 0.83, the SH2 binding enrichment [2] is reported as 0.544 and the SH2 binding enrichment [3] is reported as 0.699. For the same sequence, the phosphorylation enrichment [4] was 0.327, the phosphorylation enrichment [5] was 0.303 and the phosphorylation enrichment [6] was 0.352. The phosphorylation enrichment [7] was 0.339, the phosphorylation enrichment [8] was 0.43 and the phosphorylation enrichment [9] was 0.681. The phosphorylation enrichment [10] was 0.416, the phosphorylation enrichment [11] was 0.524 and the phosphorylation enrichment [12] was 0.583. The phosphorylation enrichment [13] was 0.369, the phosphorylation enrichment [14] was 0.52 and the phosphorylation enrichment [15] was 0.543. For the same sequence, the phosphorylation enrichment [16] was 0.305.

ESLRRYLENGK [HLA-B_Y195_W191S] was tested, and the SH2 binding enrichment [1] was 0.813, the SH2 binding enrichment [2] was 0.436 and the SH2 binding enrichment [3] was 0.473. It also gave a phosphorylation enrichment [4] of 0.362, a phosphorylation enrichment [5] of 0.431 and a phosphorylation enrichment [6] of 0.45. For the same sequence, the phosphorylation enrichment [7] was 0.392, the phosphorylation enrichment [8] was 0.34 and the phosphorylation enrichment [9] was 0.548. For the same sequence, the phosphorylation enrichment [10] was 0.461, the phosphorylation enrichment [11] was 0.519 and the phosphorylation enrichment [12] was 0.629. The phosphorylation enrichment [13] was 0.384, the phosphorylation enrichment [14] was 0.454 and the phosphorylation enrichment [15] was 0.629. The phosphorylation enrichment [16] was 0.397.

ESMNTYLQTSP [NAT1_Y208] was tested, and the SH2 binding enrichment [1] was 0.642, the SH2 binding enrichment [2] was 0.471 and the SH2 binding enrichment [3] was 0.795. For the same sequence, the phosphorylation enrichment [4] was 0.511, the phosphorylation enrichment [5] was 0.584 and the phosphorylation enrichment [6] was 0.664. It also gave a phosphorylation enrichment [7] of 0.412, a phosphorylation enrichment [8] of 0.477 and a phosphorylation enrichment [9] of 0.693. The phosphorylation enrichment [10] was 0.655, the phosphorylation enrichment [11] was 0.825 and the phosphorylation enrichment [12] was 0.947. The phosphorylation enrichment [13] was 0.469, the phosphorylation enrichment [14] was 0.539 and the phosphorylation enrichment [15] was 1. It also gave a phosphorylation enrichment [16] of 0.584.
